These results are taken from US20250032566A1 (YEDA RESEARCH AND DEVELOPMENT, published 2025).

Assay [1] has as its target T1, ThsA (Thoeris defense system protein) (UniProt J8G6Z1 1-476).
T1 construct: Expressed from pBAD as a ThsA-ThsB operon in E. coli MG1655; also called Thoeris (ThsA/B)
T1 sequence: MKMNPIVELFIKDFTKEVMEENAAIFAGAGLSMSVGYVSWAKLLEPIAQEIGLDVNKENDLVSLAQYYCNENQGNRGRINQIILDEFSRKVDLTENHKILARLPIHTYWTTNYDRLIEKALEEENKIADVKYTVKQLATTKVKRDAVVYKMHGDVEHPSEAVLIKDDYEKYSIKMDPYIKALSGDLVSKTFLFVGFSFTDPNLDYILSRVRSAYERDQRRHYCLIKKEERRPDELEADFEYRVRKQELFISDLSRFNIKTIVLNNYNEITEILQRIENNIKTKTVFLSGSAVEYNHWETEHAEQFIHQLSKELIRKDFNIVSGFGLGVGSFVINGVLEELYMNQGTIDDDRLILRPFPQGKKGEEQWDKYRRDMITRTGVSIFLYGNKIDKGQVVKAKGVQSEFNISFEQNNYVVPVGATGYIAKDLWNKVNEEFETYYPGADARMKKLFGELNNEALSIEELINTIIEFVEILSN
As to the kind of experiment: His-tag pulldown on Ni-NTA magnetic beads from E. coli lysate co-expressing TAD1-His, ThsA and ThsB; SDS-PAGE.

Assay [2] concerns the target T2, ThsB (Thoeris defense system TIR-domain protein) (UniProt J8G8J6 1-192).
T2 construct: Expressed from pBAD as a ThsA-ThsB operon in E. coli MG1655; also called Thoeris (ThsA/B)
T2 sequence: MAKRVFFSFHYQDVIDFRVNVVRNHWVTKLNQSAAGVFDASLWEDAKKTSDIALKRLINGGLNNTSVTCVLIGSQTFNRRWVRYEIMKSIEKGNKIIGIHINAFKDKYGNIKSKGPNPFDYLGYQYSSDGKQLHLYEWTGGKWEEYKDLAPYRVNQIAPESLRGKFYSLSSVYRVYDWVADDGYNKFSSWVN
The assay is described as above.

B1: TAD1 (Thoeris Anti Defense 1) from phage SBSphiJ7 with a C-terminal His-tag (other)
chain: MRELKHELLPTRHTQVFHEDKDKMEFNAPHHFVVVPAGSPLVDQQIHYGRGGNSKKVTVKDFAGKLATVNFQLGPVTEHGANGVMNEDLIAMVITRLQYFQNSEFNCRENAMAITKLEEALMWLNKRTAEREQRGVEGTHEK
notes: Co-expressed with ThsA and ThsB in E. coli MG1655 and pulled down on Ni-NTA magnetic beads; also called TAD1-His; His-TAD1; not shown: C-terminal His-tag
In the case of B1, the binding result in assay [1] and in assay [2] was “no binding” throughout.
